Key:
[1] = target: recombinant macaque IgE (trastuzumab-IgE; anti-Her2-IgE) (macaque); assay: SPR; Biacore X100, HBS-EP+ running buffer; Her2 amine-coupled on a CM5 chip, trastuzumab-IgE captured via Her2; anti-IgE as full-length IgG or Fab injected (1.56-25 nM or 1.56-50 nM), association 120 s, dissociation 300 s; 1:1 langmuir fit
[2] = target: recombinant human IgE (trastuzumab-IgE; anti-Her2-IgE) (human); assay: as above
[3] = target: recombinant human IgE (trastuzumab-IgE; anti-Her2-IgE) (human); assay: SEC-MALS; trastuzumab-IgE mixed with anti-IgE IgG at different molar ratios

Kd [1] [nM] | koff [1] [s⁻¹] | kon [1] [M⁻¹ s⁻¹] | Kd [2] [nM] | koff [2] [s⁻¹] | kon [2] [M⁻¹ s⁻¹] | stoichiometry N (4:4 (anti-IgE:IgE)) [3] | Substance
16.1 | 0.00811 | 504000 | 14.6 | 0.00614 | 420000 |  | Omalizumab Fab
0.0543 |  |  | 0.0594 |  |  | 4 | Omalizumab full-length IgG (antibody)
